Measurements as given in patent US20120114595A1 (OTSUKA CHEMICAL, published 2012).

Assays:
[1] = biological target: T1, AILIM ligand B7-H2/Fc Chimera (R&D Systems, Inc.), biotinylated (UniProt O75144 19-258, biotinylated using EZ-Link NHS-PEO Solid Phase Biotinylation Kit (sites not given)); assay: ELISA, coated synthetic AILIM against coated ICOS/Fc as reference, biotinylated B7-H2/Fc
T1 construct: Bought reagent; also called B7RP-1; Fc part of the bought chimera not given
T1 sequence (looked up): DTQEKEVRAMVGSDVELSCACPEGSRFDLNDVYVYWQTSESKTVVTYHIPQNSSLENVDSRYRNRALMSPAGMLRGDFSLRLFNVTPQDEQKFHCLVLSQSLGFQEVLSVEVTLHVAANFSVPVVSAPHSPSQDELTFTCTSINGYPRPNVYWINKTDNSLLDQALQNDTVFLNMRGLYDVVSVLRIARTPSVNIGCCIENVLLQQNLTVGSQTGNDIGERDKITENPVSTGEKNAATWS
Description: (§1) Dilution series of each evaluation sample solution of synthetic AILIM were added to an ELISA plate, and each well was coated therewith by reaction at 37° C. for 2 hours. After the reaction, the sample solution was discarded, D-PBS (−) containing 0.4% bovine serum albumin and 0.05% Tween 20 (blocking solution) was added at a concentration of 150 μL/well, and each well was blocked by reaction at 37° C. for 1 hour. The plate thus blocked was washed 3 times with D-PBS (−) containing 0.1% bovine serum albumin and 0.05% Tween 20 (washing buffer). An AILIM ligand B7-H2/Fc Chimera (R&D Systems, Inc.) biotinylated using EZ-Link NHS-PEO Solid Phase Biotinylation Kit was added at a concentration of 200 ng/50 μL/well and reacted at 37° C. for 1.5 hours. Unreacted ligand molecules were removed by washing 3 times with the washing buffer.
(§2) Subsequently, streptavidin-labeled horseradish peroxidase (BD-Pharmingen) diluted 1000-fold with D-PBS (−) containing 0.1% bovine serum albumin was added at a concentration of 100 μL/well and reacted at 37° C. for 1 hour. After the reaction, the plate was washed with 3 times with the washing buffer to remove unreacted streptavidin-labeled horseradish peroxidase. […] The reaction was terminated by the addition of 1% SDS at a concentration of 100 μL/well, and the OD value at 405 nm was measured using a plate reader (VersaMax, Molecular Devices, LLC). […]

[2] = biological target: T1, AILIM ligand B7-H2/Fc Chimera (R&D …); assay: ELISA, coated synthetic AILIM (lot a, 0.01671 nmol/ml) against coated ICOS/Fc as reference, biotinylated B7-H2/Fc
Description: as §1, §2

[3] = biological target: T1, AILIM ligand B7-H2/Fc Chimera (R&D …); assay: ELISA, coated synthetic AILIM (lot a, 0.06684 nmol/ml) against coated ICOS/Fc as reference, biotinylated B7-H2/Fc
Description: as §1, §2

[4] = biological target: T1, AILIM ligand B7-H2/Fc Chimera (R&D …); assay: ELISA, coated synthetic AILIM (lot a, 0.004178 nmol/ml) against coated ICOS/Fc as reference, biotinylated B7-H2/Fc
Description: as §1, §2

B1: oligosaccharide chain-added extracellular domain of AILIM (synthetic AILIM), 120-amino acid extracellular domain of human AILIM with an asialo-nonasaccharide … (receptor)
chain: EINGSANYEMFIFHNGGVQILCKYPDIVQQFKMQLLKGGQILCDLTKTKGSGNTVSIKSLKFCHSQLSNNSVSFFLYNLDHSHANYYFCNLSIFDPPPFKVTLTGGYLHIYESQLCCQLK
modifications: asialo-nonasaccharide chain on Asn at position 69 (residue 89 by counting from the N-terminal Met of AILIM); no oligosaccharide chain at positions 3 and 90
notes: Made by chemical synthesis (Fmoc solid phase, KCL/NCL ligation), Acm groups removed, folded by dialysis in two dialysis tubes (lot a and lot b); Coated on the ELISA plate in the assays; also called synthetic AILIM lot. a; synthetic AILIM lot. b
- fold ICOS/Fc concentration required for equivalent ligand binding activity [1]: ~10 fold
- B/A (ICOS/Fc concentration for the same absorbance over synthetic AILIM concentration) [2]: 6.05 fold
- B/A (ICOS/Fc concentration for the same absorbance over synthetic AILIM concentration) [3]: 11.4 fold
- B/A (ICOS/Fc concentration for the same absorbance over synthetic AILIM concentration) [4]: 8.88 fold
